Source: patent publication US10660969B2, “Eight-arm polyethylene glycol derivative, production method therefor, and modified bio-related substance thereof” (priority 2015, dated 2020)

Columns and labels:
[1] = system: Mouse hepatoma H22 cells; assay: Anti-tumor effect in transplanted tumor model; assay type: in vivo, mice; conditions: H22 subcutaneous tumor; tumors weighed two weeks after transplantation
Procedure: An animal model of transplanted tumor was used. Mouse hepatoma H22 cells were transplanted subcutaneously into the right axillary region of mice to form solid tumors. After transplantation for 2 days and 7 days, drugs were administered intravenously via the tail vein as a single dose. Two weeks after transplantation, the mice were sacrificed by cervical dislocation, and the tumors were isolated and weighed.

[2] = Pharmacokinetics in tumor-free SD rats (HPLC, non-compartmental model); assay type: in vivo, Adult SD rats; conditions: single dose of 25 mg/kg, within 7 days
Procedure: Tumor-free Adult SD rats were administrated a single dose of 25 mg/kg, and four rats were used for each experimental point. The rats were sacrificed at different time points within 7 days, and the concentrations of pegylated irinotecan and its metabolite SN38 were measured and analyzed by HPLC. The analysis of pharmacokinetics was carried out by using a non-compartmental model.

[3] = nude mouse

CCOC(=O)CC(CN)(CC(=O)OCC)CC(=O)OCC [Example T8, 8arm-PEG-Gly-IRES]
tumor-inhibition ratio, ranking between groups [1]: the highest tumor-inhibition ratio | apparent elimination half-life of the metabolite SN38, ranking between groups [2]: the longest apparent elimination half-life | maximum tolerated dose, ranking between groups [3]: the lowest
